Source: patent US20040018516A1

Columns and labels:
[1] = biological target: Factor VIIa/Tissue Factor (lipidated) complex (UniProt P08709); assay: cell-based or functional assay
Factor Xa = Factor Xa (UniProt P00742); assay: cell-based or functional assay
[2] = biological target: Ixolaris (recombinant, mature protein of 140 amino acids)

Chain of UniProt P08709 (P08709 61-466 limits assumed, chain 1 of 2): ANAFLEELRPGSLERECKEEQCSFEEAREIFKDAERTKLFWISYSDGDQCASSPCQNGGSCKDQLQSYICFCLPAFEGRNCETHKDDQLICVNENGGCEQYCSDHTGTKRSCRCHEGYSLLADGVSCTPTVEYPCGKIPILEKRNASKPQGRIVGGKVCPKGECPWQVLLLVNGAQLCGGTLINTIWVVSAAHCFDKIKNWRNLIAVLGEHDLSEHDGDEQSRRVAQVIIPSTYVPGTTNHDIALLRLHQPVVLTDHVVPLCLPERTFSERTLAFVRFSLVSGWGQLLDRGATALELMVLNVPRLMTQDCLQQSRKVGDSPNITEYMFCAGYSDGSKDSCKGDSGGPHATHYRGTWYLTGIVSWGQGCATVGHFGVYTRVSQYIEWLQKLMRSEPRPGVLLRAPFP
Chain of UniProt P08709 (P13726 33-295 limits assumed, chain 2 of 2, further chain): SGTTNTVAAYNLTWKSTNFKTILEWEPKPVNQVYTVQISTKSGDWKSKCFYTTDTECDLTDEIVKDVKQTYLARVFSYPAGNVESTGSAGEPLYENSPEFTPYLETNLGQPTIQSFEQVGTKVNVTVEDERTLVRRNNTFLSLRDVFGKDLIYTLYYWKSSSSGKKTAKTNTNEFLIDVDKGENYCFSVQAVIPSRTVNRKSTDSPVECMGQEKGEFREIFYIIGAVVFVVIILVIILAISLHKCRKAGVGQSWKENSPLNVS

## Ixolaris (recombinant, mature protein of 140 amino acids) (from UniProt Q964Q0 27-165)
[1]
  Residual activity (%) of VIIa/TF (6.4 pM)/S2288 (1 mM) with 32 nM Ixolaris: 0%
  inhibition of Factor X (200 nM) activation after preincubation of Factor VIIa/TF (1 nM/0.2 pM) with 100 pM Ixolaris: 65%
Factor Xa
  ED50 of the increase of Factor Xa (125 pM) esterolytic activity on S2222: 159 pM
  increase of amidolytic activity of Factor Xa (640 pM) by Ixolaris (400 pM): 40%

## Ixolaris/DEGR-Factor X complex (from UniProt P00742 41-488)
[1]
  inhibition of Factor X (200 nM) activation after preincubation of Factor VIIa/TF with 100 pM Ixolaris/DEGR-Factor X: > 85%

## full-length human TFPI (recombinant, 4900PC) (from UniProt P10646 29-304)
[1]
  IC50 of inhibition of Factor VIIa/TF-induced Factor X activation, at 15 nM Factor X: 0.61 nM
  IC50 of inhibition of Factor VIIa/TF-induced Factor X activation, at 75 nM Factor X: 0.62 nM
  IC50 of inhibition of Factor VIIa/TF-induced Factor X activation, at 200 nM Factor X: 0.625 nM

B1: γ-carboxyglutamic acid domainless Factor Xa (des-Gla-Factor Xa) (protein)
chain: KDGDQCETSPCQNQGKCKDGLGEYTCTCLEGFEGKNCELFTRKLCSLDNGDCDQFCHEEQNSVVCSCARGYTLADNGKACIPTGPYPCGKQTLERIVGGQECKDGECPWQALLINEENEGFCGGTILSEFYILTAAHCLYQAKRFKVRVGDRNTEQEEGGEAVHEVEVVIKHNRFTKETYDFDIAVLRLKTPITFRMNVAPACLPERDWAESTLMTQKTGIVSGFGRTHEKGRQSTRLKMLEVPYVDRNSCKLSSSFIITQNMFCAGYDTKQEDACQGDSGGPHVTRFKDTYFVTGIVSWGEGCARKGKYGIYTKVTAFLKWIDRSMKTRGLPKAKSHAPEVITSSPLK
[2]
  activity of 0.4 nM des-Gla-Factor Xa plus 1.6 nM Ixolaris (control without Ixolaris: 1.4±0.12 units of Vmax): 0.4 nM des-Gla-Factor Xa plus 1.6 nM Ixolaris: 2.78±0.1 units of Vmax
  fold increase of des-Gla-Factor Xa proteolytic activity in the presence of 1.6 nM Ixolaris: proteolytic activity increased 1.98 fold in the presence of Ixolaris
